We go through 27 substances from US20040121410A1, “Pain signaling molecules” (priority 2002, published 2004).

Test [1] has as its target MrgA1-GFP (mouse) (UniProt Q91WW5). Description: cell-based or functional assay.
In test [2] the target is MrgC11-GFP (mouse) [GFP: P42212]. Nature of the test: cell-based or functional assay.

On to FMRF-amide (peptide), for which, in test [1], the EC50 of calcium mobilization (FLEXstation assay) is 420 nM and the EC50 of calcium mobilization (HEK-MrgA1 cells) is 420 nM. Further, in test [2], the EC50 of calcium mobilization (FLEXstation assay) worked out at 114 nM and the EC50 of calcium mobilization (HEK-MrgC11 cells) is 114 nM.

For the substance AF-2 (peptide), the EC50 of calcium mobilization (FLEXstation assay) in test [2] amounted to 130 nM.

Take NPFF (peptide): the EC50 of calcium mobilization (FLEXstation assay) in test [1] came to 2140 nM; in test [2] it was 54 nM.

Turning to BAM-15-amide (peptide), the EC50 of calcium mobilization (FLEXstation assay) in test [1] is 8770 nM; in test [2], 479 nM. The results for the fold change of agonist activity against BAM-15 in test [1] and in test [2] were 2.7 fold and 9 fold, respectively.

In the case of F-M-R-(D)Fa (peptide), in test [1], the EC50 of calcium mobilization (HEK-MrgA1 cells) came out at 643 nM.

Consider BAM-15 (peptide), for which the EC50 of calcium mobilization (FLEXstation assay) in test [1] was determined as 23300 nM; in test [2], 53 nM.

RFRP-1 (peptide): the EC50 of calcium mobilization (FLEXstation assay) in test [2] was 1240 nM.

With (D)F-M-R-Fa (peptide), the EC50 of calcium mobilization (HEK-MrgA1 cells) in test [1] came out at 882 nM. For the same substance, the EC50 of calcium mobilization (HEK-MrgC11 cells) in test [2] came to 108 nM.

Turning to R-F-OH (peptide), the EC50 of calcium mobilization (HEK-MrgC11 cells) in test [2] was determined as 632 nM.

With γ1-MSH (peptide), the EC50 of calcium mobilization (FLEXstation assay) in test [2] worked out at 17 nM.

Regarding BAM3200 (peptide), the values for the EC50 of calcium mobilization (FLEXstation assay) in test [1] and in test [2] were greater than 10000 nM and 300 nM, respectively.

As for RFRP-3 (peptide), the EC50 of calcium mobilization (FLEXstation assay) in test [2] is 113 nM.

Consider Kiss(107-121) (peptide), for which, in test [2], the EC50 of calcium mobilization (FLEXstation assay) turned out to be 102 nM.

For F-(D)M-R-Fa (peptide), in test [1], the EC50 of calcium mobilization (HEK-MrgA1 cells) was 1260 nM and the fold decrease in fold change of agonist activity against FMRFa came to 3 fold. Further, in test [2], the EC50 of calcium mobilization (HEK-MrgC11 cells) was found to be 11 nM and the fold change of agonist activity against FMRFa worked out at 10 fold.

For NPAF (peptide), the EC50 of calcium mobilization (FLEXstation assay) in test [2] was found to be 282 nM.

For Met-ENK-RFamide (peptide), the EC50 of calcium mobilization (FLEXstation assay) in test [1] is 5250 nM; in test [2], 133 nM.

Regarding BAM-22P (peptide), the EC50 of calcium mobilization (FLEXstation assay) is 2540 nM in test [1] and 26 nM in test [2].

R-Fa (peptide): in test [2], the EC50 of calcium mobilization (HEK-MrgC11 cells) was determined as 460 nM.

Met-Enk-RF (peptide): in test [2], the EC50 of calcium mobilization (FLEXstation assay) is 545 nM and the fold change of agonist activity against the amidated peptide was 4 to 5 fold.

For PQRF-amide (peptide), the EC50 of calcium mobilization (FLEXstation assay) was greater than 10000 nM in test [1] and 126 nM in test [2].

With Dynnorphin-14 (peptide), in test [2], the EC50 of calcium mobilization (FLEXstation assay) was 22 nM.

FLRF-amide (peptide): the EC50 of calcium mobilization (FLEXstation assay) in test [1] came to 402 nM; in test [2] it was 157 nM. Moreover, the internalization of the receptor-GFP fusion (confocal microscopy, 3 µM FLRFa, 30 min, 37° C.) in test [1] was > 90 % of cells.

As for γ2-MSH (peptide), in test [2], the EC50 of calcium mobilization (FLEXstation assay) is 11 nM and the internalization of the receptor-GFP fusion (confocal microscopy, 1 µM γ2-MSH, 30 min, 37° C.) was > 90 % of cells.

For AnthoRF-amide (peptide), the EC50 of calcium mobilization (FLEXstation assay) in test [2] amounted to 16 nM.

For the substance PrRP-20 (peptide), the EC50 of calcium mobilization (FLEXstation assay) in test [2] came to 144 nM.

With Kiss(112-121) (peptide), the EC50 of calcium mobilization (FLEXstation assay) in test [2] amounted to 50 nM.

For the substance FMRF-OH (peptide), in test [1], the EC50 of calcium mobilization (FLEXstation assay) stood at 8200 nM and the fold decrease in fold change of agonist activity against FMRFa is 20 fold. For the same substance, in test [2], the EC50 of calcium mobilization (FLEXstation assay) came out at 544 nM and the fold change of agonist activity against the amidated peptide fell in the range of 4 to 5 fold.
